Results as given in FireProtDB (doi:10.1021/bi991422s).

Settings: Aspergillus oryzae (strain ATCC 42149 / RIB 40), pH 7, DSC, MOPS 30 mM, reversible: yes, whole UniProt chain shown; for denaturant m value / denaturant midpoint (higher = more stable) / unfolding free energy: Urea

B1: Guanyl-specific ribonuclease T1 wild type, P00651 (protein)
chain: MMYSKLLTLTTLLLPTALALPSLVERACDYTCGSNCYSSSDVSTAQAAGYQLHEDGETVGSNSYPHKYNNYEGFDFSVSSPYYEWPILSSGDVYSGGSPGADRVVFNENNQLAGVITHTGASGNNFVECT
denaturant m value (5 °C): 1.18 kcal/mol/M
denaturant midpoint (higher = more stable) (5 °C): 7.04 M
unfolding free energy (5 °C): 8.32 kcal/mol
denaturant m value (10 °C): 1.18 kcal/mol/M
denaturant midpoint (higher = more stable) (10 °C): 6.7 M
unfolding free energy (10 °C): 7.87 kcal/mol
denaturant m value (15 °C): 1.14 kcal/mol/M
denaturant midpoint (higher = more stable) (15 °C): 6.43 M
unfolding free energy (15 °C): 7.34 kcal/mol
denaturant m value (20 °C): 1.18 kcal/mol/M
denaturant midpoint (higher = more stable) (20 °C): 5.71 M
unfolding free energy (20 °C): 6.72 kcal/mol
denaturant m value (25 °C): 1.17 kcal/mol/M
denaturant midpoint (higher = more stable) (25 °C): 5.2 M
unfolding free energy (25 °C): 6.09 kcal/mol
Tm (Thermal): 50.8 °C
unfolding enthalpy (calorimetric) (Thermal): 96.6 kcal/mol
